# Experimental data: the RNAGym collection of RNA variant scans (doi:10.7554/elife.80360)
# B1: Hairpin Ribozyme (parent)
# chain: GUCCUCUUUCACGUGCGCGUGAAAGAGAGAAGUGAACCAGAGAAACACACGUUGUGGUAUAUUACCUGGUA
# Variants of: B1
# Assay: self-cleavage, relative activity (ratio to wild type); higher = more cleavage; co-transcriptional
row,Variant,self-cleavage
1,G21C G51U,0.865
2,G21C G51C,0.803
3,A22G A59G,0.212
4,G21U G68C,0.187
5,G21C G56A,0.184
6,G21C A61U,0.304
7,G21C A61G,0.104
8,A22C G27C,0.123
9,G21C U62A,0.206
10,G21C U62C,0.334
11,G21U A28G,0.98
12,G21U A28C,0.366
13,G21U A31U,0.0962
14,G21U C46G,0.0824
15,G21U U33A,0.242
16,G21U U33G,0.127
17,A22C C37G,0.368
18,A22C C37A,0.25
19,A22C C37U,0.435
20,A22G A36U,0.423
21,A22G A36C,0.515
22,A22C U52A,0.821
23,G21C A41G,0.606
24,G21C G40A,0.258

row,Variant,self-cleavage
1,G21U C48U,0.101
2,G21U C48G,0.132
3,G21U C48A,0.122
4,G21U A71U,0.754
5,G21U A71C,1.2
6,G21C U70A,0.779
7,G21C U70C,0.965
8,A22C U67G,0.204
9,A22G A61G,0.285
10,A22C G51C,0.769
11,A22C G51A,0.93
12,G21U C65U,0.234
13,G21U C65G,0.257
14,A22C C38A,0.124
15,A22C A28G,0.807
16,G21U G42C,0.36
17,A22C U55A,0.217
18,A22G A35C,0.715
19,G21C G57C,0.143
20,G21C G69U,0.155
21,G21C C48A,0.0883
22,G21U G27A,0.25
23,A22G,0.871
24,A22C,0.848

row,Variant,self-cleavage
1,G21C C38G,0.154
2,G21C G25C,0.238
3,A22C A45G,0.15
4,G21C A39C,0.463
5,A22G A49C,0.164
6,A22G A49G,0.345
7,A22G C50A,0.227
8,G21U G29U,0.106
9,G21U G29A,0.142
10,A22C A26G,0.557
11,G21C C65U,0.304
12,G21C C65G,0.249
13,G21C A24U,0.585
14,G21C G42A,0.216
15,G21C G42C,0.195
16,A22C C50A,0.22
17,A22C C50G,0.126
18,G21U A47C,0.282
19,A22C U63A,0.288
20,A22C A61U,0.204
21,A22C A61C,0.3
22,G21C C50A,0.386
23,G21C C50U,0.256
24,A22G A28C,0.689

row,Variant,self-cleavage
1,A22G A28U,0.673
2,A22G A39U,0.42
3,A22G A39C,0.475
4,G21U A49U,0.189
5,A22C G29U,0.131
6,A22C G29A,0.0644
7,G21U G54A,0.582
8,G21U G54C,0.438
9,G21U G54U,0.329
10,G21U C66A,0.236
11,G21U C66G,0.123
12,A22C A39U,0.461
13,G21U A61G,0.245
14,G21U G51A,0.822
15,G21C A49C,0.17
16,G21C A49G,0.302
17,G21C A49U,0.293
18,G21U,0.844
19,G21U U52G,0.661
20,A22G A26G,1.09
21,G21C A47G,0.157
22,G21C U52G,0.654
23,A22C G56A,0.165
24,A22C U62C,0.196

row,Variant,self-cleavage
1,G21U G57C,0.176
2,A22G A64C,0.22
3,A22G A45C,0.13
4,G21C U55A,0.165
5,G21C U55G,0.248
6,G21C U55C,0.204
7,A22G A43G,0.121
8,A22G A43C,0.158
9,A22G A43U,0.0762
10,G21C U53G,0.58
11,A22C A41U,1.06
12,G21C G54C,0.305
13,G21C U33C,0.145
14,G21C U33G,0.238
15,A22C G57C,0.117
16,A22C G57U,0.162
17,A22C A49G,0.512
18,G21C A71U,0.794
19,G21U G32A,0.18
20,G21U G32C,0.145
21,G21U A24G,0.805
22,A22C A31U,0.108
23,A22C A31G,0.642
24,A22C A31C,0.16

row,Variant,self-cleavage
1,A22G A23G,0.945
2,G21U A35G,0.757
3,G21C G34A,1.02
4,G21U A26U,0.561
5,G21U A26G,0.708
6,A22C A43G,0.249
7,A22G A71U,0.702
8,A22G A71G,0.907
9,G21C A28G,0.852
10,G21C A28C,0.412
11,G21U A41G,0.772
12,A22G A47U,0.102
13,G21C G27U,0.2
14,G21U A45G,0.26
15,G21U A45C,0.218
16,G21U A45U,0.218
17,G21U A43C,0.146
18,A22C G40A,0.242
19,G21U U55G,0.2
20,A22C A36G,1.05
21,G21U C37G,0.32
22,A22C U58G,0.575
23,A22C A71C,1.26
24,G21C G29A,0.0976

row,Variant,self-cleavage
1,G21C G29C,0.119
2,G21C A31C,0.0833
3,G21C A31U,0.0322
4,G21U U67G,0.36
5,A22C A44G,0.135
6,G21U U70A,0.791
7,G21U U70G,0.687
8,G21U G40C,0.122
9,G21U G25U,0.461
10,G21U G25C,0.342
11,A22C A35U,0.746
12,A22C A35C,0.895
13,A22C A35G,0.679
14,A22C U33G,0.0647
15,A22C A24C,0.233
16,G21C A35G,0.666
17,A22G C65A,0.631
18,G21U G56A,0.178
19,G21U G56U,0.147
20,G21C A26G,0.528
21,G21U U62C,0.272
22,A22C G69C,0.366
23,G21U G34C,1.08
